From publication PMC4714757, “Leishmania infantum Asparagine Synthetase A Is Dispensable for Parasites Survival and Infectivity” (PLoS Neglected Tropical Diseases, 2016)

Key:
[1] = biological target: Leishmania infantum asparagine synthetase A, recombinant, poly-His-tagged (Leishmania infantum); experiment: SEC; analytic size exclusion chromatography of purified recombinant LiAS-A on Superose 12 10/300GL, calibrated with standards (Kav against Log MW and Log Stokes radius); oligomeric state of the native protein
[2] = substrate: NC(=O)CC[C@H](N)C(=O)O; experiment: colorimetric assay of Asn formation, steady state; format: biochemical, Leishmania infantum; conditions: glutamine as nitrogen donor, other substrates in excess, 8.4 mM Mg2+, 85 mM Tris.HCl pH 7.6, 37°C
Text: (§1) colorimetric assay of Asn formation, steady state on LiAS-A (Leishmania infantum asparagine synthetase A)

[3] = substrate: N[C@@H](CC(=O)O)C(=O)O; experiment: colorimetric assay of Asn formation, steady state; format: biochemical, Leishmania infantum; conditions: other substrates in excess, 8.4 mM Mg2+, 85 mM Tris.HCl pH 7.6, 37°C
Text: as §1

[4] = substrate: Nc1ncnc2c1ncn2[C@@H]1O[C@H](COP(=O)(O)OP(=O)(O)OP(=O)(O)O)[C@@H](O)[C@H]1O; experiment: colorimetric assay of Asn formation, steady state; format: biochemical, Leishmania infantum; conditions: other substrates in excess, 8.4 mM Mg2+, 85 mM Tris.HCl pH 7.6, 37°C
Text: as §1

Row | stoichiometry N [1] | Molecule | Km [2] [µM] | kcat [2] [s⁻¹] | Km [3] [µM] | kcat [3] [s⁻¹] | Km [4] [µM] | kcat [4] [s⁻¹]
1 | 2 | Leishmania infantum asparagine synthetase A, recombinant, poly-His-tagged (enzyme) | – | – | – | – | – | –
2 | – | LiAS-A (Leishmania infantum asparagine synthetase A) (Leishmania infantum) (protein, full length, 353 residues, N-terminal 6xHis tag (pET28a) with no cleavage stated, E. coli BL21(DE3)) MSSSPQEYIDLQTRILRVKTIFAEELASALNLIQVECPMLACVGDGTQDNLSGVEKAVQVHVKEIPGANYEVVHSLAKWKRMTLGNHRFPVGRGIFTNMRALRVEETLDNIHSVYVDQWDWERVIAPADRCLEYLQATVRSLYEVLRETESRLCTEFPDIAPILPDSIKFVHTEQLLKRYPELDPKSREREAVKKLGAVFLIGIGCKLSHGDHHDVRAPDYDDWSSPVSVDSSKIGFPTADDEKPSVNTIMSLQGLNGDILVYNPVLDDVLELSSMGIRVDQEALRRQLEITGTSDRLQCRWHQCVLNGDLPQTIGGGIGQSRTVMFMLRKRHIGEVQCSVWPHEVTAQYSLL | 1710 ± 280 | 4.51 ± 0.19 | 6210 ± 1150 | 9.19 ± 0.69 | 1470 ± 40 | 4.18 ± 0.02
